Measurements taken from patent publication US20140220033A1, “Administration of an Anti-Activin-A Compound to a Subject” (Santa Maria Biotherapeutics, Inc., priority 2013, published 2014).

Tests used:
[1] = tested on: TOV-21G ovarian cancer xenografts; experiment: TOV-21G ovarian cancer xenograft growth in nude mice; format: in vivo, mouse
Method: 5×10^6 TOV-21G ovarian cancer cells were implanted subcutaneously into individual female athymic nu/nu mice (Harlan). Treatment was initiated at day 12 after tumor implantation, when the average tumor volume reached approximately 150 mm^3. The mice received PBS, sActRIIB (30 mg/kg, SC, 1×/week) or activin-A antibody (30 mg/kg, SC, 2×/week). In a separate chemotherapy combination experiment, the mice were treated with PBS, sActRIIB (10 mg/kg, SC, 1×/week), 5-FU (50 mg/kg, IP, 3 cycles, 4 daily injections per cycle) or sActRIIB and 5-FU combination at the same doses above.
For all xenograft experiments, the tumor sizes were measured longitudinally by using an electronic caliper Immediately prior to the 1st dose, the tumor-bearing mice were randomized to ensure even distribution in tumor sizes across different groups. Tumor volumes (mm^3) were calculated as tumor length (mm)×tumor width (mm)×tumor height (mm) Tumor weights were determined by necropsy.
In another experiment, athymic nude mice received TOV-21G xenografts in the abdominal flank. After 14 days, subcutaneous hu-sActRIIB-Fc was administered weekly alone or in combination with 5-FU.

Ang-1 mRNA = Ang-1 mRNA in cell cultures (real-time RT-PCR); format: cell-based, human, bovine; details: BAEC, MRC-5 and CCD-Lu cultures treated with recombinant activin-A, without or with sActRIIB; FIG. 16B
activin-A (βA) mRNA = experiment: Endogenous activin-A (βA) mRNA in cell cultures (real-time RT-PCR); format: cell-based, human, bovine; details: TOV21G, BAEC, MRC-5, CCD-Lu, U937 and THP-1 cultures treated with recombinant activin-A, without or with sActRIIB; FIG. 18
VEGF transcripts = experiment: VEGF mRNA in cell cultures (real-time RT-PCR); format: cell-based, human, bovine; details: TOV-21G, BAEC, MRC-5, CCD-Lu, U937 cultures treated with recombinant activin-A, without or with sActRIIB; FIG. 16A
VEGF = VEGF release into culture medium (ELISA); format: cell-based, human; details: TOV21G, MRC-5, CCD-Lu and TPH-1 cells treated with activin-A, without or with sActRIIB; FIG. 17A
Method: (§1) The serum VEGF levels in inh-KO mice were measured by using immunoassay kit (R&D Systems), and the levels of human VEGF and Ang-1 in cell line culture medium were quantified using ELISA kits purchased from Invitrogen (VEGF) and R&D Systems (Ang-1), by following the manufacturers' recommended protocols.

Ang-1 = Ang-1 release into culture medium (ELISA); format: cell-based, human; details: MRC-5 and CCD-Lu cells treated with activin-A, without or with sActRIIB; FIG. 17B
Method: as §1

For `O=c1[nH]cc(F)c(=O)[nH]1` [5-FU, 5-Fluorouracil, reference compound], which tumor growth reduction ([1]; 52 days after tumor cell injection, versus vehicle-treated tumor-bearing group, p<0.0001, weekly SC hu-sActRIIB-Fc from day 14, alone or with 5-FU) is on record?
Its tumor growth reduction is 47%.

And the “rate of tumor growth of TOV-21G xenografts” value ([1]; chemotherapy combination experiment, sActRIIB 10 mg/kg SC 1x/week, 5-FU 50 mg/kg IP 3 cycles, alone or together, FIG. 13)?
Its value is “decreased the rate of tumor growth significantly”.

B1: recombinant activin-A: Recombinant activin-A produced using mammalian expression system (Amgen Inc); stimulus in cell cultures (protein)
chain: GLECDGKVNICCKKQFFVSFKDIGWNDWIIAPSGYHANYCEGECPSHIAGTSGSSLSFHSTVINHYRMRGHSPFANLKSCCVPTKLRPMSMLYYDDGQNIIKKDIQNMIVEECGCS
B1 was tested. Which “levels of Ang-1 mRNA” value (Ang-1 mRNA) did it give?
Its value is “marked increases”.

And the “endogenous βA mRNA expression” value (activin-A (βA) mRNA)?
Its value is “markedly upregulated”.

And the “levels of VEGF transcripts” value (VEGF transcripts)?
Its value is “marked increases”.

And the “release of VEGF into the culture medium” value (VEGF)?
The value was “increased the release”.

And the “release of Ang-1 into the culture medium” value (Ang-1)?
The value was “increased the release”.
